According to publication PMC5986207:

Molecular target: human HER2 extracellular domain, soluble, His-tagged (human)
Experiment: AUC; multisignal sedimentation velocity (MSSV), 4:1 molar loading of HER2 to antibody (5.8:1.4 μM), PBS, 20 °C, 42,000 rpm, UV 280 and 250 nm and interference, SEDPHAT

Substance: MEDI4276, anti-HER2 biparatopic, monospecific, tetravalent antibody (trastuzumab scFv on the N terminus of the 39S heavy chain) (bispecific antibody)
- stoichiometry N (HER2 per MEDI4276 (2:1)): 2
- stoichiometry N (HER2 per MEDI4276 (5:3)): 1.67
